From the supplement of paper PMC10724198
± gives the standard deviation of the averaged measurements.

Legend:
Saccharomyces cerevisiae [1] = assay: protein stability index of tFT-peptide fusion (C-terminal peptide) (PSI (0-1 scale)); higher = more stable (slower turnover)
Description: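 MPS profiling in S. cerevisiae of the tFT-X12 degron library: putative degron peptides plus stable controls, 12 aa, fused to the C-terminus of a sfGFP-mCherry timer. Cells are FACS-sorted into 8 mCherry/sfGFP bins and deep-sequenced. PSI runs from 0 (unstable) to 1 (stable). Backgrounds are wild type, das1Δ and doa10Δ at 30 °C, and wild type, das1Δ, cdc34-1 and cdc53-1 at 37 °C; 2-3 technical replicates each.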

Saccharomyces cerevisiae [2] = assay: as above; details: genetic background: wild type; temperature: 30 C
[3] = genetic background: cdc34-1, temperature: 37 C
[4] = genetic background: cdc53-1, temperature: 37 C
[5] = genetic background: das1 deletion, temperature: 30 C
[6] = genetic background: das1 deletion, temperature: 37 C
[7] = genetic background: doa10 deletion, temperature: 30 C
[8] = genetic background: wild type, temperature: 30 C
[9] = genetic background: wild type, temperature: 37 C
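Note: PSI is a weighted mean of sequencing reads over stability bins, variants kept only with over 10 reads, mCherry proximal and sfGFP distal, peptide attached via GGGS linker.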

Sequence	protein stability index (Saccharomyces cerevisiae [1]; [3])	protein stability index (Saccharomyces cerevisiae [1]; [4])	protein stability index (Saccharomyces cerevisiae [1]; [5])	protein stability index (Saccharomyces cerevisiae [1]; [6])	protein stability index (Saccharomyces cerevisiae [1]; [7])	protein stability index (Saccharomyces cerevisiae [1]; [8])	protein stability index (Saccharomyces cerevisiae [1]; [9])	protein stability index (Saccharomyces cerevisiae [2])
LNVEEGGGLENV	0.698 ± 0.043	0.727 ± 0.023	0.631 ± 0.026	0.719 ± 0.024	0.661 ± 0.044	0.637 ± 0.044	0.699 ± 0.018	0.536 ± 0.1
LPHPLPFCFSLY	0.711 ± 0.024	0.7672 ± 0.0058	0.672 ± 0.0085	0.7781 ± 0.0021	0.4271 ± 0.0037	0.451 ± 0.025	0.6683 ± 0.0063	0.515 ± 0.062
LPLLLFYLPIIW	0.4647 ± 0.0038	0.479 ± 0.0079	0.401 ± 0.034	0.521 ± 0.0097	0.414 ± 0.0077	0.389 ± 0.034	0.4796 ± 0.0041	0.464 ± 0.03
LPPFLSSLPSSP	0.715 ± 0.027	0.769 ± 0.016	0.66 ± 0.017	0.7635 ± 0.0039	0.668 ± 0.031	0.663 ± 0.011	0.732 ± 0.013	0.704 ± 0.019
LPPSPPAPLSRL	0.906 ± 0.024	0.8918 ± 0.0015	0.81 ± 0.012	0.8616 ± 0.0061	0.804 ± 0.022	0.801 ± 0.019	0.8571 ± 0.005	0.804 ± 0.066
LQIKSFTSQRLA	0.509 ± 0.021	0.698 ± 0.0074	0.6421 ± 0.0063	0.72398 ± 0.0003	0.0758 ± 0.016	0.0902 ± 0.037	0.0965 ± 0.038	0.158 ± 0.021
LRFMLLSFLVIL	0.251 ± 0.021	0.207 ± 0.015	0.349 ± 0.034	0.429 ± 0.019	0.2402 ± 0.0023	0.176 ± 0.022	0.266 ± 0.01	0.234 ± 0.083
LRFVCALGYCVW	0.577 ± 0.042	0.645 ± 0.019	0.485 ± 0.027	0.6011 ± 0.0042	0.443 ± 0.015	0.461 ± 0.029	0.574 ± 0.0089	0.471 ± 0.0098
LRNVPCLVFFWV	0.5656 ± 0.0038	0.61 ± 0.025	0.439 ± 0.024	0.632 ± 0.011	0.334 ± 0.017	0.384 ± 0.03	0.631 ± 0.049	0.462 ± 0.048
LRSVLGWGLFLA	0.45 ± 0.033	0.494 ± 0.014	0.493 ± 0.027	0.621 ± 0.0097	0.236 ± 0.0088	0.208 ± 0.021	0.422 ± 0.0078	0.325 ± 0.018
LSCFCLFCLSFC	0.634 ± 0.053	0.678 ± 0.026	0.518 ± 0.036	0.663 ± 0.027	0.517 ± 0.039	0.496 ± 0.015	0.669 ± 0.0017	0.0626 ± 0.033
LSFLALLLFFRI	0.228 ± 0.035	0.22 ± 0.061	0.363 ± 0.04	0.44 ± 0.015	0.567 ± 0.017	0.372 ± 0.025	0.357 ± 0.019	0.4764 ± 0.0023
LSGIILGWSVSG	0.755 ± 0.047	0.76 ± 0.0077	0.6302 ± 0.0058	0.735 ± 0.047	0.6308 ± 0.005	0.645 ± 0.0062	0.7292 ± 0.003	0.676 ± 0.034
LSLVYFAALFSF	0.484 ± 0.042	0.529 ± 0.033	0.409 ± 0.019	0.53775 ± 0.00036	0.356 ± 0.025	0.377 ± 0.043	0.4858 ± 0.003	0.4709 ± 0.0037
LSTPPLLPTPPS	0.672 ± 0.029	0.7296 ± 0.0032	0.664 ± 0.012	0.7182 ± 0.0062	0.672 ± 0.029	0.669 ± 0.014	0.6988 ± 0.0048	0.7113 ± 0.0049
LSVMKLFVMVGP	0.442 ± 0.0094	0.493 ± 0.027	0.37 ± 0.026	0.5023 ± 0.0045	0.358 ± 0.0093	0.377 ± 0.029	0.479 ± 0.012	0.401 ± 0.039
LSVSLFPIRYVG	0.666 ± 0.027	0.76446 ± 1.3e-05	0.617 ± 0.019	0.7638 ± 0.0037	0.196 ± 0.0098	0.24 ± 0.02	0.453 ± 0.016	0.396 ± 0.025
LVVIYPLLSSPV	0.564 ± 0.0066	0.567 ± 0.019	0.43 ± 0.027	0.578 ± 0.0074	0.402 ± 0.014	0.43 ± 0.022	0.562 ± 0.0072	0.4643 ± 0.00088
LWFFVGFAVYGG	0.302 ± 0.0084	0.438 ± 0.018	0.346 ± 0.036	0.513 ± 0.019	0.306 ± 0.012	0.371 ± 0.0059	0.497 ± 0.058	0.455 ± 0.0066
